From publication PMC5079630
pKd: −log10 of the molar value. Each block holds one substance with its values, some of them ahead of it.

What was measured:
[1] = system: STAT1 (Tyr701-phosphorylated; GAF) (human (U6A cells)); test: EMSA; details: Combined cytoplasmic and nuclear extracts of U6A cells (IFN-beta 500 U/ml or IFN-gamma 50 U/ml, 1 h), normalized for pY701-STAT1; 10 nM dsDNA probe; buffer …
STAT1 N domain [2] = biological target: STAT1 N domain (UniProt P42224); test: AUC; sedimentation equilibrium; STAT1 N domain and mEGFP-tagged STAT2 N domain at final equimolar concentrations of 2.5, 10 and 40 uM; heterodimer to monomers
STAT2 N domain (human) = STAT2 N domain (human) (UniProt P52630); test: AUC; sedimentation equilibrium of one N domain alone; homodimer to monomers; concentrations not given
importin-α5 = importin-α5 (UniProt P52294); test: anti-FLAG co-immunoprecipitation, immunoblot; details: reference: STAT1-YFP wild type; sites Y701
STAT1 N domain [3] = biological target: STAT1 N domain (UniProt P42224); test: AUC; sedimentation equilibrium of one N domain alone; homodimer to monomers; concentrations not given

Chain of STAT1 N domain (P42224 whole entry): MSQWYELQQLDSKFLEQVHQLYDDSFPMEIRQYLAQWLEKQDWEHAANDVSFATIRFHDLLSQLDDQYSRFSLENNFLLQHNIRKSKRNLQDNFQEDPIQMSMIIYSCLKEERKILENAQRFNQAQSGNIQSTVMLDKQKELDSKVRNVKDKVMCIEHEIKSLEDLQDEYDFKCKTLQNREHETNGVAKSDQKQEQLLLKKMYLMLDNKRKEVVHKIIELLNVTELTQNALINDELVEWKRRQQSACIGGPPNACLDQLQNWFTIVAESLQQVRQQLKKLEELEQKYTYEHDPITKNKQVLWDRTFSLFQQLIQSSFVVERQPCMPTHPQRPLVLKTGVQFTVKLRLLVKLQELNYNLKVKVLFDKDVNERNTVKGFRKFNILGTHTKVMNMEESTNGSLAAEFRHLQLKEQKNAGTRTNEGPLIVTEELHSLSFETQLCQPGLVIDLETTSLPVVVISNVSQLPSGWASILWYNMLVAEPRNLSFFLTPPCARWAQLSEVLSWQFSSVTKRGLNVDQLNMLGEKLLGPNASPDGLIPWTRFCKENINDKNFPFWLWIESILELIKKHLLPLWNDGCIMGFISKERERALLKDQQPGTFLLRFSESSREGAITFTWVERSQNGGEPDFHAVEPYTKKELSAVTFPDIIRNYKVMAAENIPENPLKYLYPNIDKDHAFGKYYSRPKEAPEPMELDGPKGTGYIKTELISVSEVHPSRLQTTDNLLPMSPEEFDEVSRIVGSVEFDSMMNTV

Substance: GAS (M67) probe
binding signal (% of GAF activity without STAT2) [1]: 25

Substance: STAT1 (from UniProt P42224) STAT1-YFP Y701F
binding against the reference (importin-α5): lost

Results, then the substance that gave them:

pKd (STAT1 N domain [2]): 8.00 | pKd (STAT2 N domain (human)): 3.15
Substance: STAT2 N domain (from UniProt P52630 1-851) (domain or fragment)

pKd (STAT1 N domain [2]): 2.26
Substance: STAT2 N domain LL81,82AA (from UniProt P52630 1-851) (domain or fragment)

pKd (STAT1 N domain [3]): 4.78
Substance: STAT1 N domain (from UniProt P42224 1-750) (domain or fragment)
